T1: human lymphotoxin (TNFβ) (human) (UniProt P01374)
T1 sequence (looked up): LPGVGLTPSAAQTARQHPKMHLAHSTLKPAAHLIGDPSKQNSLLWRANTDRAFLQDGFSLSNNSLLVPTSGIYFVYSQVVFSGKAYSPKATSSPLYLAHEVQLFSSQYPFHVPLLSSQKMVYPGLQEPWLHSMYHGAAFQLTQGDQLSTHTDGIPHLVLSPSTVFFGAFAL

B1: chimeric mouse/human IgG1 anti-platelet mAb (7E3) (antibody, INN chains, looked up, V domains shown)
VH: EVQLQQSGTVLARPGASVKMSCEASGYTFTNYWMHWVKQRPGQGLEWIGAIYPGNSDTSYIQKFKGKAKLTAVTSTTSVYMELSSLTNEDSAVYYCTLYDGYYVFAYWGQGTLVTVSA
VL: EIVLTQSPVTLSVTPGDSVSLSCRASRDISNNLHWFQQTSHESPRLLIKYASQSMSGIPSRFSGSGSGTDFTLSINSVETEDFGMYFCQQTNSWPYTFGGGTKLEIK
modifications: IgG1

How the values were obtained:
[1] = biological target: T1, human lymphotoxin (TNFβ) (human); assay: cell-based or functional assay
[2] = biological target: human tumor necrosis factor-α (TNFα) (human) (UniProt P01375); assay: cell-based or functional assay
Sequence of human tumor necrosis factor-α (TNFα) (human) (P01375 77-233): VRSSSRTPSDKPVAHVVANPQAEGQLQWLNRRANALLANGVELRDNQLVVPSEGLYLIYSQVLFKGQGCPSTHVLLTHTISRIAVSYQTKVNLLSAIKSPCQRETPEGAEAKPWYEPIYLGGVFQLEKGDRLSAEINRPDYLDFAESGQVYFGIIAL

Row | Molecule | amount needed for the same degree of TNFβ inhibition, against p75P-sf2 [1] [fold] | IL-6 in supernatant of FS-4 fibroblasts after 18 h; TNF 0.3 ng/ml, antibody 4 µg/ml [2] [ng/mL] | IL-6 in supernatant of FS-4 fibroblasts after 18 h; TNF 1.5 ng/ml, antibody 4 µg/ml [2] [ng/mL] | IL-6 in supernatant of FS-4 fibroblasts after 18 h; TNF 7.5 ng/ml, antibody 4 µg/ml [2] [ng/mL]
1 | p55-sf2 (p55 TNF receptor/IgG1 heavy chain single fusion with truncated light chain JCK) (from UniProt P19438 3-159) (Fc fusion) | 3 | – | – | –
2 | B1 | – | 1.6 | 1.96 | 2.16

From US20030194402A1
